21 sequences from a protein production outcome set (Wang et al. 2014) can be followed below.

The data set in a line: label from the status in PepcDB records.
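Further: failed if final PepcDB status was selected cloned or expressed and not failed if soluble or beyond.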

“MKLAEALILRADLQKELMSLKNRINQNLLVQEGEKPSENPYTLYDEILLKVSELEGLILKINKTNSNYITSNNESISDLIVKRDMLGKKISILKEIAEEATVKVNRYSQTEIKIFSAMKVDQLQREINKYSKEYRELDTKLQGLNWTIDLME”: the protein production entry is given as “failed”. The entry for “MKLAIIIPVYNAEETIKRAILSVDTSVPYEIICINDGSTDQTQHVLTELQQKHPHIKVIHQSNQGAARSRNVGLEAMSEDVDAFLFLDADDEFLPSRIDLMVNAFNKNKETDVVIGQMARDVNGEWQVISTHQSMVKDAIVTLDRKPDILQSIGPGAKLFSSKYAGLRFDEDVVFCEEHTFIVKAFSKARDIQLIPNIVYGYNEREGSVTAQRADTFLPYMSDALKVRQRVMELLLLLDEKIYYSYRMDNLIVSYLIQAHLKKNNKITQSLLESVIEYMKAMQHTHYSGEAMFRIVRAVEQSATHWTKPLYLQWKKALSEVGIGRPGLIRFKLQVIPKKISFSGKESLKRIFKK” is “failed”.

In the case of “MKLALFDLDHTLLNTDSDHSWGEFLVNEGLVDPVHHRQMNDKFYEDYKAGQLDPIAYNEFVFEFLTQNTPEVLTDLHALFMQKVIRPQMRPKGFDGIKKHQNLGHDIVGITATSDFITAPIFRAFGITEIIATNAEVQDGKYTGKVAGLPCYQKGKLARLDQWLAGRSVEESWAYSDSINDRFLLEYATHAIAVNPDDRLEKLAIDQGWTIEDWSI”, the protein production entry was “failed”. The result for “MKLDLARKRPSLLARLWLRLGALLGRTLLLLLVIGLLGWALSSAWFAWHHRGPVAVQEQVPADEAARTQDIIQTAVRIVDQHREGTRYLRDAHAKAHGCVKAQVQVLNDLSPPLRQGVFATPGQTWQAVVRLSNGNAYPQFDSIRDARGMAIKLLDVPGQQLMASESQRREQDFVMFNHPNFFVSDVAEYQQNIAAQADGKKVGAFFPGWDPRTWQVRHLFIALATLSPAPASPTQTTYYSVSPYKFGNANAKFRVMPDPESCPAYSLPAQNQDLPNFLRSALTQQLSTDRVGACFVLQVQRQDPNRFMPIEDTSIEWKESDAPFETVARVTLPAQDFDTPAQNLACDNQSFNPWFGLEAHRPIGGINRLRKAVYEAVSDYRHSRNAEQ” reads “failed”; that for “MKLENQSETTANIQLNAPELVEANIAEVTSITIEKFLGSFTSVTRLLLNLSPLKNFHKDGLVSGKWNEPKDVPECLLSQLETFVWRRLDWGREEEKEIATYILKNGRRLKKETFTTNPIESEGLNKLKERLKVLNGLDGVQAPLFRKDGVVVGKWNQPKNVPQCLLSHLETFVWTRYRWEREEEKEEATYILKNARLLSKATFSTNIIDLKEFHWFKK”, “failed”.

Regarding “MKLFKRISFILIVLYILIVPVQHVSAHAYLENSNPADQSHIKTAPEKVTLVFNEEIEADFPLIEVKDSSGKRVETGKTSVSKKNNHMVEASLPAELKADVYSVSWRVVSADGHAVTGIISFKLGDTKATFQESEVPSSGADLQISSIQKAILYIGFSLFIGVLVFGLGLYPRKEQISEKISGRLKKVTWIALALLGVALFMQLFVQTSITTGVSISESFGPSKLAAFLTTKTGYIWISEFIVWLLLAIFTIMMFFKNKQWSWFALLTESALIGYLIFAKAQNGHAAASADKIVSITADMLHMIAASVWVGGILVLLFVLPKTGKAREIWSRFAIVAIIAVASILVSGLLMAVMNIGQMSNLFTTNYGKILLFKIGLFLLMALLGLGHYIYLKLKNKKLPFKTILIELIIGTIILIVASVLTNVQTPPPPAPKAFDETIAAKGENAKINLRVEPATVGQNQFIITFTSADGATKTDFEQVTITTKSTKTDEKATFQAKLANENQYFAEGLYINQTGKWEITVHGLTKDFTDINQTFTTNITQ”, the protein production entry is reported as “failed”. The entry for “MKLGFIGFGEAASAIASGLRQAGAIDMAAYDAASAESWRPRAEELGVSCKASVAEVAGECDVIFSLVTAQAALEVAQQAGPHLCEGALYADFTSCSPAVKRAIGDVISRHRPSAQYAAVAVMSAVKPHGHRVPLVVDGDGARRFQAAFTLYGCRIEVLDGEVGGAALLKMCRSAVLKGLEALFLEALAAAEKMGLADRVLASLDASFPEHHLRDLALYLVERNLEHADRRAHELGEVAATLCSVGVEPLVAEAGYRRLTRVAQVRAALKQRPGDVRAWLRSLANAEDA” is “not failed”; for “MKLGKAQSLEDVAGLVGACAVTILAVIIISALYVGREVFVPVALAILLSFVLARPVNFLQSLRVPRAIAAISTVLFAFAVIFALGSLIATQLSRLADDLPQYQSTIQSKITSLRGVTGGSTTLERAEGMLQNLSKELNKPKNAPAPSLSNPPTSSSRPVTPVPVEVLQPDPGTLANLRSLIAPLISPLATTGIIVIFVIFILLQREDLRNRLIRLAGTRDLQRTTAALDDAASRLSRLFLNQLLINSGFGVLIGTGLWIIGVPSPALWGILAAVLRFVPYIGSIISAAFPLTLAVAVDPGWSMLVWTAILFFVIEPAIAHVVEPMVYGRSTGLSPVAVVISATFWTALWGPIGLVLATPLTVCLVVLGRHVERLAFLDVMFGDRPALSPPEIFYQRMLAGDPAEAAEKAEQFLKERSLSSYYDDVALKGLQLAQADLDRDALDAVRLTRIKETVQEFTEDLTDEIDQAPDGDEATTDAEAAAAVEVTPVDHADDDIAVLKPADLKPGWQGAAPVMCIGGRSQLDEAAALMLAHLCRVHGIGARVEPSSALSTKNIFGLDVSNVALICLSYLEASNTTHIRYAVRRLRRKAPHAKIIVALWSAETPQLADTNESAQADATVLTLRDAVKYCVEEAIIEPPPQTIEMPVISEAV” it is “failed”; for “MKLGYSLSKSNAKNFKFYINGSAMGYKNIIINGAKSWNASPYLNTVSKGRDANPHFIISSSTIDRGATVAVCETWAYKGSKLVAKNEITTFKAFRSLSVGDKTETIAHEFGHGLGLGHVKTKNAIMLDVGFTKKIKPQRDDLNGIKAIYKLEHHHHHH” it is “failed”. As to “MKLHLEIWRQAGPNSEGHFEPIDVNDAVPQMSVLELLDHVNTGLIEEGKEPFVFASDCREGICGTCGLLVNGRPHGLDKNKPSCQQRLDHVPDGSTLKIEPLRSAAYPVVKDLLVDRSALDRVLEKGGFVSINAGTAPDADTLHQNHESAELALDH”, the protein production result is “failed”.

As for “MKLIAAGLTLIFLGFILLFLGVVLQVQTPQTTTSSSPQFAGLVLLGPIPIAFGNVPPSVLSNLIIVGVVFTIIMLIIYLIMFIIGRKTTRAPF”, the protein production result is “failed”. The entry for “MKLIGITGMPGSGKSAITKLAEKYKIVVVSMGDVVRYETLKQGMPLNPENVGNTAVKLREIYGKEAIAVPCLNYVNEKYNNEDFVIIEGIRSIYEVNYIKKHAELDIIAIHSSPKTRFERLSGRNREDDSNDWNTFVERDERELNFSIGRVISLADYMVVNEGNYMDFVNDLENTFKKIINVN” is “not failed”; for “MKLIIAIVQDKDSNRLSSQFIEANVRATKLSTTGGFLRSGNTTFMIGIDDDRVDEVLAMIKETSHAREQFMTPPVNLDVTMDGAAAYPVEVQVGGATVFVLPIEQFHQF” it is “failed”.

In the case of “MKLIVAIVRPEKLNEVLEALFQAEVRGLTLSRVQGHGGETERVETYRGTTVKMELHEKVRLEIGVSEPFVKPTVEAILKAARTGEVGDGKIFVLPVEKVYRIRTGEEDEAAVTPVQ”, the protein production result is “not failed”. Take “MKLKHKRDDKMRFDIKKVLELAEKDFETAWRETRALIKDKHIDNKYPRLKPVYGKPHPVMETIERLRQAYLRMGFEEMINPVIVDEMEIYKQFGPEAMAVLDRCFYLAGLPRPDVGLGNEKVEIIKNLGIDIDEEKKERLREVLHLYKKGAIDGDDLVFEIAKALNVSNEMGLKVLETAFPEFKDLKPESTTLTLRSHMTSGWFITLSSLIKKRKLPLKLFSIDRCFRREQREDRSHLMSYHSASCVVVGEDVSVDDGKVVAEGLLAQFGFTKFKFKPDEKKSKYYTPETQTEVYAYHPKLGEWIEVATFGVYSPIALAKYNIDVPVMNLGLGVERLAMIIYGYEDVRAMVYPQFYEYRLSDRDIAGMIRVDKVPILDEFYNFANELIDICIANKDKESPCSVEVKREFNFNGERRVIKVEIFENEPNKKLLGPSVLNEVYVYDGNIYGIPPTFEGVKEQYIPILKKAKEEGVSTNIRYIDGIIYKLVAKIEEALVSNVDEFKFRVPIVRSLSDINLKIDELALKQIMGENKVIDVRGPVFLNAKVEIK”: the protein production result is reported as “not failed”. Regarding “MKLKILLLTILTLGAMTVHAQKITGDWKGMLSIPQANMELELIFHITGEGADLSTTMDVPAQGATGIPVEKTSFADGKLTLSAAALQFTFKGTLSGNTIEGNVEQMGFSLPLTLQRFESKLPGNTALPSTEEELKALAALDKGNYKYKVEDYFAKPKASAFQLSPNGKYLSYMEKDDAGKRHVYVKEIATGTVKRAIEEKDELIKGYGWINDERLFFVMDKGGNENYHLFASNIDGSNTRDLTPFDGVKASILNMLKEQKDYMIISMNKNNPQIFEPYKLNVVTGELTQLYENKDAANPIQGYEFDKDGELRGYSRLVNGIESELYYKDLATGEFRLLKKTHWDDTFGVIAFNYASKNKDEAYVLTNLDSDKTRIVLYDLKQNKIIREIFANEDYDVSGLHLSRKRNYEIDLMAYEGEKSVVVPVSATYKELHKLMEKEFKGKEFSVVDYDDDETILLIAVQSDKLYGTYYQFDTRTKKFTLLYDLMPQLKEEDMAEMRPIKFKSRDGLTIHGFITLPKAALEGKKVPLIVNPHGGPQGIRDSWGFNPETQLFASRGYATLQVNFRISGGYGKEFLRAGFKQIGRKAMDDVEDGVRYAISQGWVDPDRIAIYGASHGGYATLMGLVKTPDLYACGVDYVGVSNIYTFFDSFPEYWKPFKEMVKEIWYDLDNPEEAAIAKEVSPFFQIDKINKPLFVVQGANDPRVNINESDQIVTALRARGFEVPYMVKYNEGHGFHREENSMELYRAMLGFFAKHLKK”, the protein production result is “failed”. The result for “MKLLLALMLFMTFFAHAADPEPGSQYLQAAEAGDRRAQYFLADSWLSYGDLNKAEYWAQKAADSGDADACALLAQIKITNPVSLDYPDAKKLAEKAANAGSKVGEITLARILVNTQAGRPDYPKAISLLQKASEDLDNDSAVDAQMLLGLIYANGVGIAADDEKAAWYFKRSSAISRTGYSEYWAGMMFLNGEPGFIEKNKQKALHWLNLSCLEGFDTGCEEFETLTNG” reads “failed”.

Consider “MKLLLVGEVRDGRVTAETAELFGFAACFSAEVSMVLAGSTDDLPSFEGKLYRADGVNAFDLACHKRLVLAAVEREQPDAVVFLHSSHGWELAPRVAFAMQSAQVSGVVGLDDGGYVVESCNGKMRRTVKPLTDRVVLTLQLGAFDAPAMAGIPEVTALDVEPDSTIEFLDCVQPERGIDLTRAGVIVSAGRGVGSAERVELVRALADALGGEVGASRPVVDAGWLERARQVGSSGQSVSPALYVACGISGAIQHLAGMKGSGFVLAINTDRDTPITSVADVLAVADVAEFLSALTAAIRARR”, for which the protein production result is given as “failed”. The entry for “MKLLREMLIVVFIYFLGEFISKSFIHSVPGNIIGMLILLVLLCTKVVKVESIDCVAQFFLDHLAFFFVPAGVGLMTSVGLLEGNVLKLLFICIASTFVVIGVTGLVVQALIRRKEKKLLGDEVNE” is “failed”.

Take “MKLLVVDDSSTMRRIIKNTLSRLGYEDVLEAEHGVEAWEKLDANADTKVLITDWNMPEMNGLDLVKKVRSDSRFKEIPIIMITTEGGKAEVITALKAGVNNYIVKPFTPQVLKEKLEVVLGTND”: the protein production entry is reported as “failed”. The result for “MKLMDVHVLFSGGKDSSLSAVILKKLGYNPHLITINFGVIPSYKLAEETAKILGFKHKVITLDRKIVEKAADMIIEHKYPGPAIQYVHKTVLEILADEYSILADGTRRDDRVPKLSYSEIQSLEMRKNIQYITPLMGFGYKTLRHLASEFFILEEIKSGTKLSSDYEAEIRHILKERGESPEKYFPEHKQTRVVGLKKEI” reads “not failed”.
